Measurements: patent US20190134153A1, “IMMUNOMODULATORY EFFECT OF INHALED KINASE INHIBITOR PEPTIDES IN LUNG” (MOERAE MATRIX, INC., priority 2017, published 2019)

Experiments:
Experiment in all cases: Kinase Profiling Assay
Type in all cases: biochemical
Settings in all cases: 100 μM
Lck(h) activated = Lck(h) activated (Homo sapiens, UniProt P06239)
TAO3(h) = target: T1, TAO3(h) (Homo sapiens, UniProt Q9H2K8)
T1 sequence (Q9H2K8 1-898): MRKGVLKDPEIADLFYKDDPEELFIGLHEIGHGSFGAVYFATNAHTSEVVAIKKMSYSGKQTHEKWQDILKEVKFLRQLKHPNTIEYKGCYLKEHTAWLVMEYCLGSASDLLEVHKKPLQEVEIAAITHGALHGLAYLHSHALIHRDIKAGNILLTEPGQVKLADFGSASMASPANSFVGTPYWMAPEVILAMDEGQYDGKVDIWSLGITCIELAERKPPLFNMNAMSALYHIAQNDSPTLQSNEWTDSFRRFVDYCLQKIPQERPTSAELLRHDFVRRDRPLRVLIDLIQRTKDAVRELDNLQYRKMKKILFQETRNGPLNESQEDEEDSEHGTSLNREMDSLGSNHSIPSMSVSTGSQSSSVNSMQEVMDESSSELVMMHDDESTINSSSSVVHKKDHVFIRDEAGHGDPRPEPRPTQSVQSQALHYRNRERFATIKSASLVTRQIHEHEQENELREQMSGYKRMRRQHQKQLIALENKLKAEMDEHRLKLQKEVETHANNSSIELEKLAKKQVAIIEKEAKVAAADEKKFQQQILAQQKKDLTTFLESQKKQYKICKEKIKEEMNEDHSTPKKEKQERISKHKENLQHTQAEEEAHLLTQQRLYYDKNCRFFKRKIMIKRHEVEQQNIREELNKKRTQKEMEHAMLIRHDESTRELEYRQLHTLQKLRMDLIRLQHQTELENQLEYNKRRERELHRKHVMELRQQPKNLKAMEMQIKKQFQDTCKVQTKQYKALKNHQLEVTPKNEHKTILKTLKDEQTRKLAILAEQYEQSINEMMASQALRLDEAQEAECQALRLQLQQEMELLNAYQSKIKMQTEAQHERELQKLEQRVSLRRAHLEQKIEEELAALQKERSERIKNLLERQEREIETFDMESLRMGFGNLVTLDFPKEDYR

p70S6K(h) = p70S6K(h) (Homo sapiens, UniProt P23443)
TAK1(h) = target: T2, TAK1(h) (Homo sapiens, UniProt O43318)
T2 sequence (O43318 1-303 limits assumed): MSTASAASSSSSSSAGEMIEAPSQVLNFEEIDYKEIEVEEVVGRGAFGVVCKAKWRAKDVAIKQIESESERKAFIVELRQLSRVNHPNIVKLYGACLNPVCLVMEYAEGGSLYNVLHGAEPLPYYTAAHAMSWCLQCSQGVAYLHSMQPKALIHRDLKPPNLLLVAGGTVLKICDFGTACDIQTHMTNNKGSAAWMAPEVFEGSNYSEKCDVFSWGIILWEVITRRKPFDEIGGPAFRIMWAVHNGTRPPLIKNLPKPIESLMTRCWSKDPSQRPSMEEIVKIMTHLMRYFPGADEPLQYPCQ

Lyn(h) = Lyn(h) (Homo sapiens, UniProt P07948)
PKG1β(h) = target: T3, PKG1β(h) (Homo sapiens, UniProt Q13976)
T3 sequence (Q13976 1-686 isoform Q13976-2): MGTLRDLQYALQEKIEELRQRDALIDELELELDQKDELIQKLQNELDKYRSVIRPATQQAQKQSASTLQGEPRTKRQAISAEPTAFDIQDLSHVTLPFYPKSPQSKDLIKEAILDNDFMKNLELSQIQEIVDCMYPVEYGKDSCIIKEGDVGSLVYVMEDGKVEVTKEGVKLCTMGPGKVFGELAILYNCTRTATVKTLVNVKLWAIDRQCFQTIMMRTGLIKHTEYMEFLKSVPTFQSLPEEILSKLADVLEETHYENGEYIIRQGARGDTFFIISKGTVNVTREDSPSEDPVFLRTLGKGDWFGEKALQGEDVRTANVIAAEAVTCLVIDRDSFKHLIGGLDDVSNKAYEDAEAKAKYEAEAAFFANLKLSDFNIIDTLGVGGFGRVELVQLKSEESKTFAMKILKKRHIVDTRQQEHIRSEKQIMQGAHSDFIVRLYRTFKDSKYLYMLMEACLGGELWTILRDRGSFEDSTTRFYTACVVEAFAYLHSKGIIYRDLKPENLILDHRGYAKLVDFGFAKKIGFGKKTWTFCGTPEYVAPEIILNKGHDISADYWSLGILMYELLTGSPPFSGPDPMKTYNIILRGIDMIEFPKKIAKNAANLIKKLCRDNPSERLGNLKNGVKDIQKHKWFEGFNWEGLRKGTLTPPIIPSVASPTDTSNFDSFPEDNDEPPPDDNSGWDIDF

DDR2(h) = target: T4, DDR2(h) (Homo sapiens, UniProt Q16832)
T4 sequence (Q16832 22-855): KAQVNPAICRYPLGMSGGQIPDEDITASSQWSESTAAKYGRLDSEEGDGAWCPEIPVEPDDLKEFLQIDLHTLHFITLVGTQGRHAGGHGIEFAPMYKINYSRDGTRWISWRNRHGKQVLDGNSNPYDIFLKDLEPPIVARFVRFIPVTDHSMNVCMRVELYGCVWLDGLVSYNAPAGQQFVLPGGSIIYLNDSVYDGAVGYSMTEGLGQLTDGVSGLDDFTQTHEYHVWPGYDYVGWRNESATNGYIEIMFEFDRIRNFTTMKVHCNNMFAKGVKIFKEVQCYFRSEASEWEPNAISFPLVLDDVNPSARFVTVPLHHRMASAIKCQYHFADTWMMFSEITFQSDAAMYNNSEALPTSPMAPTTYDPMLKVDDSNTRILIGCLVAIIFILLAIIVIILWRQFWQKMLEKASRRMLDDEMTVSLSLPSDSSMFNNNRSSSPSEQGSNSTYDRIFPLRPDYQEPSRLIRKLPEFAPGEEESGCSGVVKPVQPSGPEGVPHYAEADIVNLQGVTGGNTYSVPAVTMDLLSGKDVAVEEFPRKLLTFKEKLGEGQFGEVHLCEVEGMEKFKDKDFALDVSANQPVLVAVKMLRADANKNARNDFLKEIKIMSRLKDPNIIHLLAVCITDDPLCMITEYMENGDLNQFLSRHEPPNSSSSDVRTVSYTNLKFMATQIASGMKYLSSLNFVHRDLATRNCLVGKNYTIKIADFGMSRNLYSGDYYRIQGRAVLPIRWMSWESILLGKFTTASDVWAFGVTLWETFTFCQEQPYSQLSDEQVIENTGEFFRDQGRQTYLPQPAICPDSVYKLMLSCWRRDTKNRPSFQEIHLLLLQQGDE

Sequence of Lyn(h) (P07948 whole entry): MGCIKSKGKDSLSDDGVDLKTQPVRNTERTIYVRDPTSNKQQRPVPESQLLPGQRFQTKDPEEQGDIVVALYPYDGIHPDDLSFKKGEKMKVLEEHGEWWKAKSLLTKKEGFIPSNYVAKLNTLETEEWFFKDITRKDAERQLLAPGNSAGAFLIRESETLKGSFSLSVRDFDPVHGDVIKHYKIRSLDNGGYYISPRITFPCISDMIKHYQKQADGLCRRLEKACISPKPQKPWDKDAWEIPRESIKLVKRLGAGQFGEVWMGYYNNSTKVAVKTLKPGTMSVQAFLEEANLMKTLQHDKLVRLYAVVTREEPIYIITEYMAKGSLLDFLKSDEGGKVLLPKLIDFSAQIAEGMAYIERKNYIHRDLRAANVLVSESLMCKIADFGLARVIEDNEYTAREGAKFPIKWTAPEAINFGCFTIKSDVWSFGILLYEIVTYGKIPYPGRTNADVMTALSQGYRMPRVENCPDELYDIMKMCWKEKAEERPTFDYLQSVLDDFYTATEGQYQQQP
Sequence of p70S6K(h) (P23443 whole entry): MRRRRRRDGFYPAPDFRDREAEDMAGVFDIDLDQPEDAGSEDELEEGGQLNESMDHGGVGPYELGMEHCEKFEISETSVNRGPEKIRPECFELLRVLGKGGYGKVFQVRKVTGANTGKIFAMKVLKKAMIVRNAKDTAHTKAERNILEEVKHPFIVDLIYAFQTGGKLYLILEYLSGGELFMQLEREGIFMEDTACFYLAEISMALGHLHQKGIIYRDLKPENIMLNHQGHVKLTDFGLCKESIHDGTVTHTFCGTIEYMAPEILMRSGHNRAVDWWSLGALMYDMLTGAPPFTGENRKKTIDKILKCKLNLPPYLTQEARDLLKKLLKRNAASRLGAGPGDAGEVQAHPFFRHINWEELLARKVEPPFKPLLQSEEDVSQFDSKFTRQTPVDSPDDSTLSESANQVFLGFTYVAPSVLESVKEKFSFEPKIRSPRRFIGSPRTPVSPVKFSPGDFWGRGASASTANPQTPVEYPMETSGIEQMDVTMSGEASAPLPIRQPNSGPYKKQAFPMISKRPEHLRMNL
Sequence of Lck(h) activated (P06239 whole entry): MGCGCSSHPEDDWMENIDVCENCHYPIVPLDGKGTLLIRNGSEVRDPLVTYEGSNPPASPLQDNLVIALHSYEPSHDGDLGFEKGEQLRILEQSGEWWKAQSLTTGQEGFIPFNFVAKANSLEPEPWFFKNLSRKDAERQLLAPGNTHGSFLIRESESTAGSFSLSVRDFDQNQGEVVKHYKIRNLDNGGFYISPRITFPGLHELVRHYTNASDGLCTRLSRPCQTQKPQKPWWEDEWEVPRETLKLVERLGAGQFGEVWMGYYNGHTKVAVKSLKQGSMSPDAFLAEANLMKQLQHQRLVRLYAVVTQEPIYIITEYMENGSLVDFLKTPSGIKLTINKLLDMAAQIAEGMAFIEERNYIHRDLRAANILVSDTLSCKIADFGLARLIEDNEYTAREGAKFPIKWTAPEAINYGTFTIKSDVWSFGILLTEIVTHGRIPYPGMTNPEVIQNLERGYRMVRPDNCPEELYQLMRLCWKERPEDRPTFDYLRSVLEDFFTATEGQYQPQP

Sequence	% activity (Lck(h) activated) [%]	% activity (TAO3(h)) [%]	% activity (p70S6K(h)) [%]	% activity (TAK1(h)) [%]	% activity (Lyn(h)) [%]	% activity (PKG1β(h)) [%]	% activity (DDR2(h)) [%]
FAKLAARLYRKALARQLGVAA [MMI-0300]	243	77	35	122	69	50	94
KAFAKLAARLYRKALARQLGVAA [MMI-0400]	216	67	33	177	3	53	95
YARAAARQARAKALNRQLGVA [MMI-0200]	90		84	124	98	57	
HRRIKAWLKKIKALARQLGVAA [MMI-0500]	76	12	3		31	24	79
